The target of assay [1] is T1, hTfR1 (recombinant, construct not specified) (human, UniProt P02786 89-760, limits assumed).
T1 construct: also called biotinylated hTfR1
In words: ELISA on coated hTfR1, biotinylated scFv detected with streptavidin-HRP, after 48 h in mouse serum or PBS at 37°C or 4°C. How it is done:
After 48 h incubation, binding of the scFv to hTfR1 was evaluated by ELISA. […] The reaction was stopped by 1:1 addition of 0.5 M sulfuric acid (#35354-1L, Honeywell). Optical density at 450 nm was obtained using a microplate reader (Spark, Tecan) and the collected data was plotted using GraphPad Prism software (GraphPad Software Inc).
(An ELISA detects its analyte on a solid surface through an enzyme-linked reagent.)

The target in assay [2] is T2, truncated hTfR1 of SEQ ID NO:122 (human, UniProt P02786 122-760).
T2 construct: also called human TfR1; Human TfR1
In words: SPR, TfR1 amine-coupled, Fab injected, 1:1 fit. The method, then: (§1) The interaction was measured using the single cycle kinetics method with a contact time of 120 s at a flow rate of […] followed by a dissociation time of 600 s. Regeneration of the surface between cycles was done by injecting 3M MgCl₂. The binding data were fitted to a 1:1 interaction model. The Fabs were diluted in HBS-EP+ (Cytiva, #BR100669). Experiments were performed at 25° C.

In assay [3] the target is T3, truncated cTfR1 of SEQ ID NO:123 (cynomolgus monkey, UniProt Q5RDH6 122-760 (Pongo abelii entry)).
T3 construct: also called cynomolgus TfR1
T3 chain: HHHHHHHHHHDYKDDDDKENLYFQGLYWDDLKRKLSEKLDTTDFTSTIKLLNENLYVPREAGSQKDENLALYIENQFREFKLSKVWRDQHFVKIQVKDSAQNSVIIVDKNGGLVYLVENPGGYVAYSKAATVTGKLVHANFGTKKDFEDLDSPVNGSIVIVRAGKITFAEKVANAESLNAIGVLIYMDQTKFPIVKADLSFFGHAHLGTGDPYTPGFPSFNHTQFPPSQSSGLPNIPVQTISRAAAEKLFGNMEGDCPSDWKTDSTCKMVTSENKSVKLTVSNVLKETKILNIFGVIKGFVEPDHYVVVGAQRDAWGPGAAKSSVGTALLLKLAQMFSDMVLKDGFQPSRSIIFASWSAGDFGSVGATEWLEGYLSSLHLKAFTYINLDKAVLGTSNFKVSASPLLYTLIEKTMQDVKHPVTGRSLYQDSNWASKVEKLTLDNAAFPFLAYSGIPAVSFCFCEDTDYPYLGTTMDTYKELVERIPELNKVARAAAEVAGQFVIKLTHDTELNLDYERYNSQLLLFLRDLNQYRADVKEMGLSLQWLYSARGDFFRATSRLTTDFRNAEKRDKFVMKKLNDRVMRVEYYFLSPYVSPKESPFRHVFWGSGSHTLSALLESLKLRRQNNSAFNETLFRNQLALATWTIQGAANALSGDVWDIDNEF
In words: SPR, TfR1 amine-coupled, Fab injected, 1:1 fit. The method, then:
as §1
For orientation: Surface plasmon resonance follows binding to a sensor surface in real time, without labels.

For assay [4], the target named is T2, truncated hTfR1 of SEQ ID NO:122. In words: SPR, TfR1 amine-coupled, Fab injected, 1:1 fit. The method, then: (§2) Binding of the purified Fabs to human and cynomolgus TfR1 was evaluated using either SPR (FIG. 44) or indirect ELISA (FIG. 45). For SPR, a Biacore 8K instrument (Cytiva) was used. […] The Fabs were injected over the chip using a 2-fold dilution series in four steps starting at 100 nM. The interaction was measured using the single cycle kinetics method with a contact time of 120 s at a flow rate of 30 μl/min followed by a dissociation time of 1000 s. Regeneration of the surface between cycles was done by injecting 3M MgCl₂. The binding data was fitted to a 1:1 interaction model. The Fabs were diluted in HBS-EP+ (Cytiva, #BR100669). Experiments were performed at 25° C.
The source holds these as a separate data set.

The target of assay [5] is T3, truncated cTfR1 of SEQ ID NO:123. In words: SPR, TfR1 amine-coupled, Fab injected, 1:1 fit. How it is done: as §2
The target of assay [6] is T4, ectodomain of human TfR1 (His10-hTfR1; SEQ ID NO:110) (human, UniProt P02786 89-760).
T4 construct: also called ectodomain of hTfR1
In words: indirect ELISA: plate coated with 1 µg/ml hTfR1 ectodomain, Fab in 1:3 serial dilution, anti-human IgG F(ab')2-HRP. The method, then: For the indirect ELISA, half area 96-well plates (Corning, #3690) were coated with 1 μg/ml recombinant ectodomain of hTfR1 (SEQ ID NO:110) in PBS overnight at 4° C. The coated plates were blocked using Pierce protein-free blocking solution (Thermo Fisher Scientific, #37572) for 1 h at room temperature with shaking and washed four times in PBS containing 0.1% TWEEN-20. Serial dilutions (1:3) of various expressed constructs in incubation buffer (1% BSA, 0.1% TWEEN-20 in PBS) were incubated for 1 h at room temperature. […] Following four wash steps, K-Blue® Aqueous TMB substrate (Neogen, #331177) was added to the wells for 15 min at room temperature before the reaction was stopped with 1:1 dilution of 0.5 M H₂SO₄. The optical density at 450 nm was recorded (Spark, Tecan) and background signal was subtracted before analysis.

Another assay concerns the target T5, Aβ1-28 monomer (UniProt P05067 672-699).
T5 construct: range 1-28 (Aβ numbering)
Description: SPR, antibody immobilised. The method, then: Affinity and specificity evaluation and KD determination by surface plasmon resonance: Binding interactions between antigens and antibodies were evaluated by SPR using a Biacore 8K instrument (Cytiva) according to standard procedures. […] Additionally, the specificity towards different N-truncated forms of Aβ (Aβ2-28, Aβ3-28, Aβ4-28 and AβpE11-28 monomers) was evaluated.
(§3) Single cycle kinetics with the antibodies immobilized on a CM5 chip was used to measure the binding of the antibodies to the different monomers (AβpE3-40, AβpE11-28, Aβ1-28, Aβ2-28, Aβ3-28 and Aβ4-28). For the measurements, 5 μg/ml of analyte antibody was immobilized on the chip. […] Regeneration of the surface between cycles was done by injecting 30 μl 3 M MgCl₂. The binding data was fitted to a 1:1 interaction model.
(§4) In all SPR experiments, 1×HBS-EP+ (Cytiva, cat. no. BR100669) was used as running buffer and to dilute antibodies and target antigens. Experiments were performed at 25° C.

For a further assay, the target named is T6, Aβ2-28 monomer (UniProt P05067 673-699).
T6 construct: range 2-28 (Aβ numbering)
T6 sequence (P05067 673-699): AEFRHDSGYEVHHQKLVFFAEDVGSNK
In words: SPR, antibody immobilised. How it is done:
as §3, §4

A further assay concerns the target T7, AβpE11-28 monomer (UniProt P05067 682-699, pyroglutamate at position 11 (N-terminal residue)).
T7 construct: range 11-28 (Aβ numbering)
T7 peptide (looked up): EVHHQKLVFFAEDVGSNK
Description: SPR, antibody immobilised. The method, then: as §3, §4

Assay [7] concerns the target T8, AβpE3-40 monomer (UniProt P05067 674-711, pyroglutamate at position 3 (N-terminal residue)).
T8 construct: range 3-40 (Aβ numbering); Synthetic peptide (Bachem/Anaspec), verified monomeric by SEC; also called monomeric AβpE3-40
Description: SPR, antibody immobilised, monomer injected, 1:1 fit. How it is done:
as §3, §4

A further assay deals with T9, Aβ3-28 monomer (UniProt P05067 674-699).
T9 construct: range 3-28 (Aβ numbering)
T9 sequence (P05067 674-699): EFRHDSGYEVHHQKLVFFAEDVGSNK
The assay is described as above. How it is done: as §3, §4

The target of a further assay is T10, Aβ4-28 monomer (UniProt P05067 675-699).
T10 construct: range 4-28 (Aβ numbering)
T10 sequence (P05067 675-699): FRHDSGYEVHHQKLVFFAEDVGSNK
The assay is described as above. How it is done: as §3, §4

Assay [8] deals with T8, AβpE3-40 monomer. Description: inhibition ELISA, antigen titrated in solution, AβpE3-40 coat. The method, then: (§5) For binding to Aβ1-40 and AβpE11-40, the positive control 4G8 (Covance #SIG-39320, epitope: amino acids 17-24 of Aβ) was included. The recombinant antibodies were incubated at a fixed concentration (0.05 μg/ml) with titrating concentrations of the different Aβ antigens. After incubation for 45 min at 900 rpm to reach equilibrium, the antibody-Aβ samples were added to a blocked and washed ELISA plate with an AβpE3-40 coat (0.5 μM). The samples were incubated on the plate for 25 min without shaking followed by washing, incubation with detection antibody, another washing step and finally incubation with alkaline phosphatase substrate.

Another assay has as its target T11, Aβ1-40 monomer (UniProt P05067 672-711).
T11 construct: range 1-40 (Aβ numbering)
The assay is described as above. How it is done:
as §5

In the next assay the target is T12, AβpE11-40 monomer (UniProt P05067 682-711, pyroglutamate at position 11 (N-terminal residue)).
T12 construct: range 11-40 (Aβ numbering)
T12 peptide (looked up): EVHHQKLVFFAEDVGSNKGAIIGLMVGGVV
Described as above. The method, then: as §5

In assay [9] the target is T13, AβpE3-42 protofibrils (UniProt P05067 674-713, pyroglutamate at position 3 (N-terminal residue)).
T13 construct: range 3-42 (Aβ numbering); Soluble aggregates made from AβpE3-42 peptide, purified in the void peak of SEC; also called AβpE3-42 PF
T13 sequence (P05067 674-713): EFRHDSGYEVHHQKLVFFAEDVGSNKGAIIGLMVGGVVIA
The description is as above. How it is done: as §5

In assay [10] the target is T13, AβpE3-42 protofibrils. In words: SPR, protofibrils immobilised, antibody injected, 1:1 fit, apparent. The method, then:
(§6) Single cycle kinetics was also used to measure binding of the antibodies to AβpE3-42 protofibrils. […] For binding to AβpE3-42 protofibrils, the antibodies were injected over the chip using a 3-fold dilution series in five steps starting at 700 nM, using 2 min injection of every antibody concentration and a 60 min dissociation time. Regeneration of the surface between cycles was done by injecting 30 μl 10 mM glycine-HCl pH 1.7. The binding data was fitted to a 1:1 interaction model.
as §4

The target in a further assay is T14, Aβ1-42 monomer (UniProt P05067 672-713).
T14 construct: range 1-42 (Aβ numbering)
T14 sequence (P05067 672-713): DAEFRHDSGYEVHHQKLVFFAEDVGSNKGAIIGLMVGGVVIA
Description: ELISA: Aβ monomer captured on a polyclonal anti-Aβ42 coat, hybridoma supernatant diluted 1/243, anti-mouse IgG-HRP.

A further assay concerns the target T15, Aβ2-42 monomer (UniProt P05067 673-713).
T15 construct: range 2-42 (Aβ numbering)
Described as above.

The target in assay [11] is T13, AβpE3-42 protofibrils. Description: SPR, protofibrils immobilised, antibody injected, 1:1 fit, apparent; binding to AβpE3-42 protofibrils (not monomer); KD in pM. How it is done:
as §6, §4

A word on the EC50 (read off the curve): it is the concentration that produces a half-maximal response. A word on the koff: it is the rate constant with which the complex falls apart. For orientation: kon means a measure of how fast the partners come together. One may read the IC50 as the concentration at which inhibition is half-maximal.

Where two headings read alike, the source gives them in different places. A value given as a limit tells only on which side of the number the result lay.

T5 sequence (P05067 672-699): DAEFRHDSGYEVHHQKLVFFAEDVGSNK
T15 sequence (P05067 673-713): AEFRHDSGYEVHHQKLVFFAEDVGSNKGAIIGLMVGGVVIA

B1: h26D3wt_DS, VL-first (His6 and Avi tags, biotinylated) (scFv)
scFv: DIQMTQSPSSVSASVGDRVTITCKSSQSLLYSTNQKNYLAWYQQKPGKAPKLLIYWASTRESGVPSRFSGSGSGTDFTLTISSLQPEDFATYYCQQYFIYPRTFGCGTKVEIKGGGGSGGGGSGGGGSGGGGSEVQLVQSGAEVKKPGSSVKVSCKASGYIFTDYNMDWVRQAPGQCLEWIGDINPDYDTTSYNEKFKGRATLTVDKSTSTAYMELSSLRSEDTAVYYCARGGYSGSSYYHPMDYWGQGTLVTVSS
modifications: biotin on the Avi tag (site directed in vivo biotinylation)
As to B1, the “EC50 (read off the curve)” value in assay [1] is around 0.02 mg/L.

B2: h26D3-Fab (Fab, V domains shown)
VH: EVQLVQSGAEVKKPGSSVKVSCKASGYIFTDYNMDWVRQAPGQGLEWIGDINPDYDTTSYNEKFKGRATLTVDKSTSTAYMELSSLRSEDTAVYYCARGGYSGSSYYHPMDYWGQGTLVTVSS
VL: DIQMTQSPSSVSASVGDRVTITCKSSQSLLYSTNQKNYLAWYQQKPGKAPKLLIYWASTRESGVPSRFSGSGSGTDFTLTISSLQPEDFATYYCQQYFIYPRTFGQGTKVEIK
notes: His-tagged Fab from ExpiCHO; also called humanized 26D3 Fab
Take B2: the Kd came to 3.2 nM in assay [2], 5.8 nM in [3], 10 nM in assay [4] and 12 nM in [5]. In assay [2], this molecule yielded a koff of 0.0045 s⁻¹. The same molecule had a kon in assay [2] of 1.2e+06 M⁻¹ s⁻¹. The “EC50 (read off the curve)” value in [6] was around 0.3 nM.

B3: Pyr12.2 (antibody, V domains shown)
VH: EVQLQQSGPELVKPGTSIKMSCKASGYSFTGFTMNWVKQSHGKNLEWIGLINPYNGVTTYNQKFKGKATITVDKSSRTAYMELLSLTYEDSAVYYCTREGNWEGVYWGQGTPVTVSA
VL: EVVLTQTPLTLSVTIGQSASISCKSSQSLLDSNGKTYLHWFLLRPGQSPKRLIYLVSILDSGVPDRFTGSGSGTDFTLKISRVEAEDLGIYYCVQGTHFPFTFGSGTKLEIKR
notes: Murine anti-AβpE3 antibody; also called recombinant antibody Pyr12.2; hybridoma clone Pyr12.2
Regarding B3, the binding result is listed as “no binding (tested: 2500 nM)” in the assay with Aβ1-28 monomer; “no binding (tested: 2500 nM)” with Aβ2-28 monomer; “no binding (tested: 2500 nM)” with AβpE11-28 monomer; “no binding” with Aβ1-42 monomer; “no binding” with Aβ2-42 monomer. The Kd in the assay with AβpE3-40 monomer [7] was 0.57 nM; in the assay with Aβ3-28 monomer, 42.6 nM; with Aβ4-28 monomer it was 6760 nM; in the assay with AβpE3-42 protofibrils [11], 0.0536 nM. For the same molecule, the koff with AβpE3-40 monomer [7] worked out at 4.12e-05 s⁻¹; with Aβ3-28 monomer, 5.77e-05 s⁻¹; with Aβ4-28 monomer it was 0.481 s⁻¹; in the assay with AβpE3-42 protofibrils [10], 3.31e-06 s⁻¹. Further, the kon with AβpE3-40 monomer [7] is 71800 M⁻¹ s⁻¹; with Aβ3-28 monomer, 1750 M⁻¹ s⁻¹; with Aβ4-28 monomer, 78200 M⁻¹ s⁻¹; with AβpE3-42 protofibrils [10], 63100 M⁻¹ s⁻¹. Also, the IC50 with AβpE3-40 monomer [8] was 1.52 nM; with Aβ1-40 monomer it was above 5000 nM; in the assay with AβpE11-40 monomer it was above 5000 nM; in the assay with AβpE3-42 protofibrils [9], 8.43 nM.
